Experiment [1] addresses T1, alanine scanning mutant of the MEF2C peptide of SEQ ID NO: 2, asparagine at position 2 replaced by alanine (human).
T1 construct: Member of the alanine scanning peptide library; also called mutation at peptide position 2
T1 peptide: GAPNLLPLAHPSL
The experiment is described as follows: direct ELISA, relative quantification against a wild-type peptide standard curve (FIG. 8). Here is the method:
(§1) ELISA was performed to map the epitope of the test antibody. The peptides were coated in 96-well microtiter plates at 4° C. for 16 h. The plates were then blocked with 5% MPBS at 37° C. for 2 h. After washed with PBS-T, 100 μl target/control antibody (0.5 μg/ml) was added and incubated at 37° C. for 2 h. The plates were washed with PBS-T and incubated with 100 μl of 0.1 μg/ml goat anti-mouse IgG (H+L) at 37° C. for 1 h. The plates were washed with PBS-T and incubated with rabbit anti goat IgG (H+L) [HRP] at 37° C. for 1 h. After washing the plate with PBS-T, the color was developed with 100 μl TMB substrate for 10 minutes. The reaction was stopped by adding 100 μl of 1 M HCl and the absorbance was measured at 450 nm using a spectrometer. […] A non-coated well was set as blank control and the peptide library incubated with the detection antibodies only was set as the negative control.
(§2) In addition to the alanine scanning, a relative quantification of binding was performed. Each of the mutated peptides was assayed in direct ELISA according to the procedures described above and compared to a standard curve performed with the wild-type peptide. Relative binding quantification was then performed as described previously. […] Therefore, considering the combination of the data obtained in FIGS. 7 and 8 an epitope target of the anti-MEF2C mAb is the following amino acid sequence: […]
(In an ELISA, binding on a coated surface is turned into a signal by an enzyme label.)

Experiment [2] addresses T2, alanine scanning mutant of the MEF2C peptide of SEQ ID NO: 2, leucine at position 5 replaced by alanine (human).
T2 construct: Member of the alanine scanning peptide library; also called mutation at peptide position 5
T2 peptide: GNPNALPLAHPSL
The description is as above. Here is the method:
as §1, §2

Experiment [3] deals with T3, alanine scanning mutant of the MEF2C peptide of SEQ ID NO: 2, proline at position 7 replaced by alanine (human).
T3 construct: Member of the alanine scanning peptide library; also called mutation of the seventh residue; P7
T3 peptide: GNPNLLALAHPSL
Described as above. Here is the method:
as §1, §2

In experiment [4] the target is T4, alanine scanning mutant of the MEF2C peptide of SEQ ID NO: 2, glycine at position 1 replaced by alanine (human).
T4 construct: Member of the alanine scanning peptide library synthesised by GenScript; also called mutation of the first residue; G1
T4 peptide: ANPNLLPLAHPSL
Described as above. Here is the method: as §1, §2

Experiment [5] addresses T5, alanine scanning mutant of the MEF2C peptide of SEQ ID NO: 2, proline at position 3 replaced by alanine (human).
T5 construct: Member of the alanine scanning peptide library; also called mutation at peptide position 3
T5 peptide: GNANLLPLAHPSL
The description is as above. Here is the method:
as §1, §2

Experiment [6] has as its target T6, alanine scanning mutant of the MEF2C peptide of SEQ ID NO: 2, asparagine at position 4 replaced by alanine (human).
T6 construct: Member of the alanine scanning peptide library; also called mutation at peptide position 4
T6 peptide: GNPALLPLAHPSL
The description is as above. Here is the method: as §1, §2

The target in experiment [7] is T7, 13 amino acid sequence from human MEF2C (SEQ ID NO: 2), GNPNLLPLAHPSL (human).
T7 construct: Synthetic peptide (GenScript); Coated on the plate in ELISA, injected over the immobilised antibody in Biacore; also called wild-type peptide; antigen peptide
T7 peptide: GNPNLLPLAHPSL
Kind of experiment: SPR, BIAcore T200, calculated as the inverse of Kd. The method, then:
(§3) Affinity of the antibody for the peptide was measured by using BIAcoreT200. After covalent coupling of the antibody onto the Series S Sensor Chip CM5, different concentrations (0.078, 0.781, 1.563, 3.125 and 6.250 μM) of peptide were injected serially over the antibody and blank flow cell at a flow rate of 30 μl/min. Association and dissociation phases were monitored for 30 and 150 seconds, respectively. Peptide with the concentration of 6.250 μM was set as repetition. The antibody surface was regenerated with 10 mM Glycine-HCl, pH2.0, 30 s injections 1 time.
(§4) About 10000 RU of antibody was immobilized on the sensor chip via primary amine groups. Binding data was processed, double referenced with response from blank injections, and fit to a 1:1 interaction model using the BIAcore T200 evaluation software.

Experiment [8] addresses T7, 13 amino acid sequence from human MEF2C …. Kind of experiment: SPR, BIAcore T200, antibody coupled to CM5 chip, peptide injected, 1:1 model. Here is the method: as §3, §4
For experiment [9], the target named is T8, Mutated peptide on Aa L (13th position).
T8 peptide: GNPNLLPLAHPSA
The experiment is described as follows: indirect ELISA on coated peptide, antibody at 0.5 µg/ml, OD450. Here is the method:
as §1
(§5) Thirteen mutant peptides were numbered in numerical order and their binding activity with target/control antibodies were determined by indirect ELISA. The non-specific binding between the peptide, the target antibody and rabbit anti-goat IgG [HRP] was determined. The non-specific binding between the peptide, goat anti-mouse IgG and rabbit anti-goat IgG [HRP] was determined as well.

The target of experiment [10] is T9, Mutated peptide on Aa P (11th position).
T9 peptide: GNPNLLPLAHASL
Described as above. The method, then:
as §1, §5

The target in experiment [11] is T10, Mutated peptide on Aa H (10th position).
T10 peptide: GNPNLLPLAAPSL
The description is as above. The method, then:
as §1, §5

For experiment [12], the target named is T11, Mutated peptide on Aa L (8th position).
T11 peptide: GNPNLLPAAHPSL
Kind of experiment: ELISA on coated mutant peptide, relative quantification against a standard curve of the wild-type peptide. The method, then:
as §1, §2

Experiment [13] has as its target T12, Mutated peptide on Aa L (6th position).
T12 peptide: GNPNLAPLAHPSL
Described as above. Here is the method:
as §1, §2

Experiment [14] has as its target T1, alanine scanning mutant of the MEF2C …. Kind of experiment: indirect ELISA on coated alanine mutant peptides (FIG. 7). Here is the method:
as §1, §5

Experiment [15] has as its target T2, alanine scanning mutant of the MEF2C …. The description is as above. The method, then:
as §1, §5

Experiment [16] has as its target T5, alanine scanning mutant of the MEF2C …. Described as above. The method, then:
as §1, §5

For experiment [17], the target named is T6, alanine scanning mutant of the MEF2C …. The experiment is described as above. The method, then: as §1, §5

These results are taken from US20150337031A1 (CELYAD S A, published 2015).

As a reminder, the Kd is a measure of binding affinity in units of concentration. A low value points to higher affinity. In general, koff refers to the rate constant with which the complex falls apart. In general, kon refers to a measure of how fast the partners come together.

A value given as a limit tells only on which side of the number the result lay.

B1: anti-MEF2C monoclonal antibody produced by the hybridoma cell line deposited with BCCM/LMBP under Accession No. LMBP 9949CB (antibody, V domains shown)
VH: EVQLQQSGPELVKPGASVKISCKASAYSFTGYFMNWVKQSHGKSLEWIGRINPYNGNTFYNQNFKGKATLTVDRSSSTAHMQILSLTSEDSTVYYCGREGATGAMDYWGQGTSVTVLP
VL: DVVMTQTPLSLPVSLGDQASISCRSSQSLVHSNGDTYLHWYLQMPGQSPRLLIYKVSNRFSGVPDRFSGSGSGTDFTLKISRVEAEDLGVYFCSQSTHVPPTFGGGTKLEIK
notes: IgG from a mouse hybridoma (detected with anti-mouse IgG); also called anti-MEF2C mAb; α MEF2C
Turning to B1, the “decrease of the binding relative to the wild-type peptide” value in experiment [1], in [2], in experiment [5] and in experiment [6] was over 99% each time. The “loss of binding relative to the wild-type peptide” value in [3] was determined as 96.4%; in experiment [4], 92.9%. Also, in experiment [7], the Ka was 6.37e+06 M⁻¹. Besides, the Kd in experiment [8] turned out to be 157 nM. Also, in experiment [8], the koff worked out at 0.00367 s⁻¹. The same molecule registered a kon in experiment [8] of 23400 M⁻¹ s⁻¹. For the same molecule, the binding result is reported as “binds” in experiment [9]; “binds” in experiment [10]; “binds” in experiment [11]; “binds” in [12]; “binds” in [13]; “no binding (tested: 0.5 µg/ml antibody)” in [14]. The binding result in experiment [15], in [16] and in experiment [17] was “no binding (tested: 0.5 µg/ml antibody)” throughout.
